# Measurements from patent US20240043537A1 (MacroGenics, published 2024).
# Where a chain is given by its changes, count along the chain named.
# T1: 5T4 on A498 cells (UniProt Q13641 32-420, limits assumed)
# T1 construct: whole, on cells; also called 5T4-expressing A498 cells; A-498 kidney carcinoma (5T4)
# T1 sequence (looked up): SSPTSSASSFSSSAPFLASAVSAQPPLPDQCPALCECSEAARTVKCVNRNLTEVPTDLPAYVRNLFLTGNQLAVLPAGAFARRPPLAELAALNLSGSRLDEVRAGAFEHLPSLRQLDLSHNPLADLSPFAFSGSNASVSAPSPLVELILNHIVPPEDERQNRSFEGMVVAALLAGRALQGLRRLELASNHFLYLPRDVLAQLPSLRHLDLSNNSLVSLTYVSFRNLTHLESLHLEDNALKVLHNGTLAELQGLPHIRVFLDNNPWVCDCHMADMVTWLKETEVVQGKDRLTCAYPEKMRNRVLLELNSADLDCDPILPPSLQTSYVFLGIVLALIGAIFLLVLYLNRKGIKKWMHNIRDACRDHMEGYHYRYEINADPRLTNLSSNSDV
# T2: soluble human CD123, His-tagged (human, UniProt P26951 19-305)
# T2 construct: Captured on an anti-PentaHis surface; also called soluble CD123; not shown: His tag
# T2 sequence (looked up): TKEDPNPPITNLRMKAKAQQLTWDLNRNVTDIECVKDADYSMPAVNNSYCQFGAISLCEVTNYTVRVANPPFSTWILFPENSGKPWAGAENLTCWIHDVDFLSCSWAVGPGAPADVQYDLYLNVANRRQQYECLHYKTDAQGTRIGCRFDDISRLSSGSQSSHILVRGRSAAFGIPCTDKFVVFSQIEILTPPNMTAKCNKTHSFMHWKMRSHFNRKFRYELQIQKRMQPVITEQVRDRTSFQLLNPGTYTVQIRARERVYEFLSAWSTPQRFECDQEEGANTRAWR
# B1: CD123-WT (bispecific antibody)
# chain 1: DFVMTQSPDSLAVSLGERVTMSCKSSQSLLNSGNQKNYLTWYQQKPGQPPKLLIYWASTRESGVPDRFSGSGSGTDFTLTISSLQAEDVAVYYCQNDYSYPYTFGQGTKLEIKGGGSGGGGEVQLVESGGGLVQPGGSLRLSCAASGFTFSTYAMNWVRQAPGKGLEWVGRIRSKYNNYATYYADSVKDRFTISRDDSKNSLYLQMNSLKTEDTAVYYCVRHGNFGNSYVSWFAYWGQGTLVTVSSGGCGGGEVAALEKEVAALEKEVAALEKEVAALEKGGGDKTHTCPPCPAPEAAGGPSVFLFPPKPKDTLMISRTPEVTCVVVDVSHEDPEVKFNWYVDGVEVHNAKTKPREEQYNSTYRVVSVLTVLHQDWLNGKEYKCKVSNKALPAPIEKTISKAKGQPREPQVYTLPPSREEMTKNQVSLWCLVKGFYPSDIAVEWESNGQPENNYKTTPPVLDSDGSFFLYSKLTVDKSRWQQGNVFSCSVMHEALHNHYTQKSLSLSPGK
# chain 2: QAVVTQEPSLTVSPGGTVTLTCRSSTGAVTTSNYANWVQQKPGQAPRGLIGGTNKRAPWTPARFSGSLLGGKAALTITGAQAEDEADYYCALWYSNLWVFGGGTKLTVLGGGGSGGGGEVQLVQSGAELKKPGASVKVSCKASGYTFTDYYMKWVRQAPGQGLEWIGDIIPSNGATFYNQKFKGRVTITVDKSTSTAYMELSSLRSEDTAVYYCARSHLLRASWFAYWGQGTLVTVSSGGCGGGKVAALKEKVAALKEKVAALKEKVAALKE
# chain 3: not shown
# notes: Three-chain diabody with Fc; also called CD123 x CD3 mAb 1 DART-B-type diabody
# B2: CD123-M18 (bispecific antibody)
# chain 1: B1 chain 1 with A154G
# chain 2: B1 chain 2
# chain 3: not shown
# notes: Three-chain diabody with Fc; also called CD123 x CD3 mAb 1 M18 DART-B-type diabody
# B3: CD123-M1 (bispecific antibody)
# chain 1: B1 chain 1 with S231T
# chain 2: B1 chain 2
# chain 3: not shown
# notes: Three-chain diabody with Fc; also called CD123 x CD3 mAb 1 M1 DART-B-type diabody
# B4: CD123-M2 (bispecific antibody)
# chain 1: B1 chain 1 with G223K, S231T
# chain 2: B1 chain 2
# chain 3: not shown
# notes: Three-chain diabody with Fc; also called CD123 x CD3 mAb 1 M2 DART-B-type diabody
# B5: 5T4-WT (bispecific antibody)
# chain 1: DIQMTQSPSSLSASVGDRVTITCRASQGISNYLAWFQQKPGKAPKSLIYRANRLQSGVPSRFSGSGSGTDFTLTISSLQPEDVATYYCLQYDDFPWTFGQGTKLEIKGGGSGGGGEVQLVESGGGLVQPGGSLRLSCAASGFTFSTYAMNWVRQAPGKGLEWVGRIRSKYNNYATYYADSVKGRFTISRDDSKNSLYLQMNSLKTEDTAVYYCVRHGNFGNSYVSWFAYWGQGTLVTVSSGGCGGGEVAALEKEVAALEKEVAALEKEVAALEKGGGDKTHTCPPCPAPEAAGGPSVFLFPPKPKDTLMISRTPEVTCVVVDVSHEDPEVKFNWYVDGVEVHNAKTKPREEQYNSTYRVVSVLTVLHQDWLNGKEYKCKVSNKALPAPIEKTISKAKGQPREPQVYTLPPSREEMTKNQVSLWCLVKGFYPSDIAVEWESNGQPENNYKTTPPVLDSDGSFFLYSKLTVDKSRWQQGNVFSCSVMHEALHNHYTQKSLSLSPGK
# chain 2: QAVVTQEPSLTVSPGGTVTLTCRSSTGAVTTSNYANWVQQKPGQAPRGLIGGTNKRAPWTPARFSGSLLGGKAALTITGAQAEDEADYYCALWYSNLWVFGGGTKLTVLGGGGSGGGGQVQLVQSGAEVKKPGASVKVSCKASGYTFTSFWMHWVRQAPGQGLEWMGRIDPNRGGTEYNEKAKSRVTMTADKSTSTAYMELSSLRSEDTAVYYCAGGNPYYPMDYWGQGTTVTVSSGGCGGGKVAALKEKVAALKEKVAALKEKVAALKE
# chain 3: not shown
# notes: Three-chain diabody with Fc; Kabat position 65 of the CD3 VH is G in this construct; also called 5T4 x CD3 mAb 1 DART-B-type diabody
# B6: 5T4-M18 (bispecific antibody)
# chain 1: B5 chain 1 with A148G, G183D
# chain 2: B5 chain 2
# chain 3: not shown
# notes: Three-chain diabody with Fc; also called 5T4 x CD3 mAb 1 M18 DART-B-type diabody
# B7: 5T4-M2 (bispecific antibody)
# chain 1: B5 chain 1 with G183D, G217K, S225T
# chain 2: B5 chain 2
# chain 3: not shown
# notes: Three-chain diabody with Fc; also called 5T4 x CD3 mAb 1 M2 DART-B-type diabody
# B8: 5T4-M1 (bispecific antibody)
# chain 1: B5 chain 1 with G183D, S225T
# chain 2: B5 chain 2
# chain 3: not shown
# notes: Three-chain diabody with Fc; also called 5T4 x CD3 mAb 1 M1 DART-B-type diabody
# B9: CD123-M17 (bispecific antibody)
# chain 1: B1 chain 1 with Y153T
# chain 2: B1 chain 2
# chain 3: not shown
# notes: Three-chain diabody with Fc; also called CD123 x CD3 mAb 1 M17 DART-B-type diabody
# B10: CD123-M13 (bispecific antibody)
# chain 1: B1 chain 1 with Y235E
# chain 2: B1 chain 2
# chain 3: not shown
# notes: Three-chain diabody with Fc; also called CD123 x CD3 mAb 1 M13 DART-B-type diabody
# B11: CD123-M19 (bispecific antibody)
# chain 1: B1 chain 1 with G223K, F225I
# chain 2: B1 chain 2
# chain 3: not shown
# notes: Three-chain diabody with Fc; also called CD123 x CD3 mAb 1 M19 DART-B-type diabody
# B12: T-CD123-WT (other)
# chain 1: B1 chain 1
# chain 2: B1 chain 2
# heavy: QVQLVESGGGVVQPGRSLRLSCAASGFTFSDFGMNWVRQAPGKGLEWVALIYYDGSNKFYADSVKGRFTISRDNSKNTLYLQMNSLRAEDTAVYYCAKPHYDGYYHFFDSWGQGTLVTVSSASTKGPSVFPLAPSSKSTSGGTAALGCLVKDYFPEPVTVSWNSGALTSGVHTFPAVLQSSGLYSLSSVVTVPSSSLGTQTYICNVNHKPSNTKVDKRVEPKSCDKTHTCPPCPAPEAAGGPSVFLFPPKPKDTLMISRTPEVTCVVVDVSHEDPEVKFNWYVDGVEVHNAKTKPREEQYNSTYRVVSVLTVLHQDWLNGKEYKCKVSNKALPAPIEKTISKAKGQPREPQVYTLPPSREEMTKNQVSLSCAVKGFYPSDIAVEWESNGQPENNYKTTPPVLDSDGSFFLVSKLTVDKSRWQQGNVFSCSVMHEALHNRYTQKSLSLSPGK
# light: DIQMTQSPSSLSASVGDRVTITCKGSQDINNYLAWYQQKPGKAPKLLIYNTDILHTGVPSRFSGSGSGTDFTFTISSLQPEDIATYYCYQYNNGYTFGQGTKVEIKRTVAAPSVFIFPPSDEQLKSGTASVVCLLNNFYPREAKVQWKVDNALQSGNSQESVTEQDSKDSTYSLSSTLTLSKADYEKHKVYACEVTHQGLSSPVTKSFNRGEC
# notes: Four-chain trivalent CD123 x CD3 x CD8 molecule with Fc; also called CD123 mAb 1 x CD3 mAb 1 x TRX2 TRIVALENT-type molecule
# B13: T-CD123-M1 (other)
# chain 1: B1 chain 1 with S231T
# chain 2: B1 chain 2
# heavy: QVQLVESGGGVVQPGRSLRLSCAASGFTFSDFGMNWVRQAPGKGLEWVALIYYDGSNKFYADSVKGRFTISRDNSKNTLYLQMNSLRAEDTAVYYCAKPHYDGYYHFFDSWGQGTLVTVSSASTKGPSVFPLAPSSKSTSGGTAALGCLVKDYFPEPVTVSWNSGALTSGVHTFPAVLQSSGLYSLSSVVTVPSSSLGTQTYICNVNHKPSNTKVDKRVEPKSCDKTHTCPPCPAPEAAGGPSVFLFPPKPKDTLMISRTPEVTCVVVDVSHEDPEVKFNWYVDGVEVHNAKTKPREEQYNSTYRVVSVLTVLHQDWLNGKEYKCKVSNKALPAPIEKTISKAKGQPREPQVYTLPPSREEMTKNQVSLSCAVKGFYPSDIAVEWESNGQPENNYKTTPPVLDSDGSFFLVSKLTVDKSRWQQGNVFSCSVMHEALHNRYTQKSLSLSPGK
# light: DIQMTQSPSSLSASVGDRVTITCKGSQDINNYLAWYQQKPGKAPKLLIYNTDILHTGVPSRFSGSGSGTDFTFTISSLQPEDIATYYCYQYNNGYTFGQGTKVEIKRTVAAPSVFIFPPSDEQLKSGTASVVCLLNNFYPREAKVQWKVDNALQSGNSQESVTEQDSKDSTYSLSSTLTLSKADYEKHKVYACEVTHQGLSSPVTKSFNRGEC
# notes: Four-chain trivalent CD123 x CD3 x CD8 molecule with Fc; also called CD123 mAb 1 x CD3 mAb 1 M1 x TRX2 TRIVALENT-type molecule
# B14: T-CD123-M2 (other)
# chain 1: B1 chain 1 with G223K, S231T
# chain 2: B1 chain 2
# heavy: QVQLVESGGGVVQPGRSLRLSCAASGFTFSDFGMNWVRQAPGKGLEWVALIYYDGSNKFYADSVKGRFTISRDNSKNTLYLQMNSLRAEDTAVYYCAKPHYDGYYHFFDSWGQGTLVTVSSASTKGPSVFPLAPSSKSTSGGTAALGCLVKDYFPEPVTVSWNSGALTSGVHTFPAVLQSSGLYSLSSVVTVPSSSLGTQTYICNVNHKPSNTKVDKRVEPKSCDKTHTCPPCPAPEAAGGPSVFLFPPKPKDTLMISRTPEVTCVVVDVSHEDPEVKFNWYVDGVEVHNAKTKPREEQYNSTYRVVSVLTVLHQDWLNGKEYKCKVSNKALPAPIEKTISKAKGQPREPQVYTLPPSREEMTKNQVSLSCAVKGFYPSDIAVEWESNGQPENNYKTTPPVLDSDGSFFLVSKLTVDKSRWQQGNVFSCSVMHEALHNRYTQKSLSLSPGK
# light: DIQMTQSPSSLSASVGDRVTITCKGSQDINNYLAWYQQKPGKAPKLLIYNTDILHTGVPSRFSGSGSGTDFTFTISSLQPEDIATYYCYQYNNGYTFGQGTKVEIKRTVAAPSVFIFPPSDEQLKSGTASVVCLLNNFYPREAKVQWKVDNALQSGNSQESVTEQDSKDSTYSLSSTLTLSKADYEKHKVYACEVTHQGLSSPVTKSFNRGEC
# notes: Four-chain trivalent CD123 x CD3 x CD8 molecule with Fc; also called CD123 mAb 1 x CD3 mAb 1 M2 x TRX2 TRIVALENT-type molecule
# B15: T-CD123-M18 (other)
# chain 1: B1 chain 1 with A154G
# chain 2: B1 chain 2
# heavy: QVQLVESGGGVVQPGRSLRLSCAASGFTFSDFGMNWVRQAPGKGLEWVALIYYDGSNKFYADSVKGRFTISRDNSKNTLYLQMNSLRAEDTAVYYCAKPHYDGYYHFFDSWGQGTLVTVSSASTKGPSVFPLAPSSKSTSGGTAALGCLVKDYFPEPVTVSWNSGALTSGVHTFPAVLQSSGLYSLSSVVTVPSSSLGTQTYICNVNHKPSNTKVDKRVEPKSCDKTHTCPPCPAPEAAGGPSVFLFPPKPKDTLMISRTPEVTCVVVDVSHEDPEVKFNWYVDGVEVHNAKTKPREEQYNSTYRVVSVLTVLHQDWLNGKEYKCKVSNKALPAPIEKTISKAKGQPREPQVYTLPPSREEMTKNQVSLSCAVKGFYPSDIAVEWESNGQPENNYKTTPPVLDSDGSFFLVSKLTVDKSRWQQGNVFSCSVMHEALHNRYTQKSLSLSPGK
# light: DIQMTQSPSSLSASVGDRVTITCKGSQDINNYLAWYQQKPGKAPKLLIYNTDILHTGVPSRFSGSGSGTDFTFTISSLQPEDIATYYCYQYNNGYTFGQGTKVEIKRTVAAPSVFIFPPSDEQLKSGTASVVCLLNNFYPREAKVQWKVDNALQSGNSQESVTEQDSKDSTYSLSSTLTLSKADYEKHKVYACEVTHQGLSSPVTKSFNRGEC
# notes: Four-chain trivalent CD123 x CD3 x CD8 molecule with Fc; also called CD123 mAb 1 x CD3 mAb 1 M18 x TRX2 TRIVALENT-type molecule
# Molecular target: T3, soluble human CD3 (human, UniProt P07766 23-126)
# T3 sequence (P07766 23-126): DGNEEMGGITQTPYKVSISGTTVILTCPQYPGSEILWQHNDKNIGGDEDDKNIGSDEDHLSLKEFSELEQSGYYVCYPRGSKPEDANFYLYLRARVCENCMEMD
# Test: SPR (BIAcore), diabody over immobilized soluble human CD3, 1:1 fit
# Method: (§1) The ability of the CD123-binding diabodies: CD123-WT, CD123-M1, CD123-M2 and CD123-M18 to bind to human CD3 and CD123 was also evaluated using BIAcore®. […] Table 14 presents the calculated kₐ, kd and KD from these studies.
row,Binder,Kd
1,B1,67 nM
2,B2,593 nM
3,B3,842 nM
4,B4,108 nM

# Molecular target: T3, soluble human CD3
# Test: SPR (BIAcore), diabody over immobilized human CD3
# Method: as §1
# The ability of the 5T4-binding diabodies: 5T4-WT, 5T4-M1, 5T4-M2 and 5T4-M18 to bind to CD3 was also evaluated using BIAcore®, as described above. Table 15A presents the calculated kₐ, kd and KD.
Binder,Kd,koff,kon
B5,36 nM,0.0054 s⁻¹,150000 M⁻¹ s⁻¹
B6,453 nM,0.034 s⁻¹,75000 M⁻¹ s⁻¹
B7,118 nM,0.041 s⁻¹,350000 M⁻¹ s⁻¹
B8,326 nM,0.031 s⁻¹,95000 M⁻¹ s⁻¹

# Molecular target: cyno CD3 (cynomolgus, UniProt Q95LI5 22-117)
# Sequence (Q95LI5 22-117): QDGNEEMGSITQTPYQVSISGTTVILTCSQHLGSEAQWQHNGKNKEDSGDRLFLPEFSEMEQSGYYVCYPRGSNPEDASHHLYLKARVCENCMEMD
# Test: SPR (BIAcore), diabody 6.25-400 nM over immobilized cyno CD3, 1:1 Langmuir fit
# Method: (§2) In additional studies the ability of CD123-binding diabodies: CD123-WT, CD123-M13, CD123-M17 and CD123-M19 to bind to human CD3 and cynomolgus CD3 was also evaluated using BIAcore®. […] Table 15B presents the calculated kₐ, kd and KD.
row,Binder,Kd
1,B9,329 nM
2,B1,39 nM
3,B10,580 nM
4,B11,227 nM

# Molecular target: T4, CD8 on CD8+ T-cells (UniProt P01732 22-235; P10966 22-210)
# T4 construct: whole, on cells; also called CD8 expressing CD8+ T-cells
# T4 sequence (P01732 22-235, chain 1 of 2): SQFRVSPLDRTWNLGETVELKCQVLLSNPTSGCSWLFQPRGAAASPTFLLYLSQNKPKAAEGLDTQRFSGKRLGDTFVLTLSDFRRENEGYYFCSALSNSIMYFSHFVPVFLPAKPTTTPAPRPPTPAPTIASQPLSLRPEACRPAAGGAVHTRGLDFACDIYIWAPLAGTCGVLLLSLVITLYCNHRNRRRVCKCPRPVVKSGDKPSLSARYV
# T4 sequence (P10966 22-210, chain 2 of 2): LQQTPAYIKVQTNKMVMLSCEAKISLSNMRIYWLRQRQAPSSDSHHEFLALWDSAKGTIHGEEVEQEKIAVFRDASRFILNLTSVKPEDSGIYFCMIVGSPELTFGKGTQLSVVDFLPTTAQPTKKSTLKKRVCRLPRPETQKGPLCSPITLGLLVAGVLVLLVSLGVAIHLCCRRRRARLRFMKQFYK
# Test: flow cytometry on CD8+ T-cells, MFI (geo mean) against concentration (nM); CD123-WT is the diabody comparator without a CD8-Binding Domain
row,Binder,binding result
1,B1,no binding (tested: 100 nM)

# Molecular target: T5, CD123 on MOLM-13 cells (UniProt P26951 19-378, limits assumed)
# T5 construct: whole, on cells; also called CD123-expressing MOLM-13 cells
# Test: flow cytometry on CD123-expressing MOLM-13 cells, MFI (geo mean) against concentration (nM)
# Target sequence in this assay (P26951 19-378 limits assumed): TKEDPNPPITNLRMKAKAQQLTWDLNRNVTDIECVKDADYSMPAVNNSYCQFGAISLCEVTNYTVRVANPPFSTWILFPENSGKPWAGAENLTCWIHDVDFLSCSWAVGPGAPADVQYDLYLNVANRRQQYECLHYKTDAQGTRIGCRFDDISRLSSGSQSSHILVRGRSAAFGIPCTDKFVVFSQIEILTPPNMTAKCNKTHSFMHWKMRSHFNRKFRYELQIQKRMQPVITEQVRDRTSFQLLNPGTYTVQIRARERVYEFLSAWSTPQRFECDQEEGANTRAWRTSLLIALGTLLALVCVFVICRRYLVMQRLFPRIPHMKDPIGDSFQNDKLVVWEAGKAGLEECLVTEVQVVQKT
row,Binder,binding result
1,B12,binds
2,B13,binds
3,B14,binds
4,B15,binds

# Molecular target: T5, CD123 on MOLM-13 cells
# Test: Flow cytometry on MOLM-13 cells; detection with biotinylated anti-E/K-coil antibody and streptavidin-PE
# Method: (§3) FIG. 9A-9B show the ability of DART-B-type diabodies to bind to Disease Antigens. […] Binding was detected using biotinylated antibody specific for the diabodies' E/K coils and streptavidin-phycoerythrin (PE).
# (§4) The ability of such diabodies to bind to their respective Disease Antigen (i.e., CD123 or 5T4) on the surface of MOLM-13 leukemia (CD123) or A-498 kidney carcinoma (5T4) target cancer cells was assessed using FACS. Briefly, cells were incubated with the diabody molecules (in FACS buffer containing 10% human AB serum) in microtiter plates. The cells were washed and incubated with biotin-conjugated mouse anti-EK-coil antibody that recognizes the E-coil/K-coil (EK) Heterodimer-Promoting Domain of the diabodies mixed with streptavidin-phycoerythrin.
row,Binder,EC50 (read off the curve)
1,B3,~2 nM

# Molecular target: T1, 5T4 on A498 cells
# Test: Flow cytometry on A498 cells; detection with biotinylated anti-E/K-coil antibody and streptavidin-PE
# Method: as §3, §4
row,Binder,EC50 (read off the curve)
1,B5,~1 nM
2,B6,~1 nM
3,B7,~1 nM
4,B8,~1 nM

# Molecular target: T3, soluble human CD3
# Test: SPR (BIAcore), diabody 6.25-400 nM over immobilized human CD3, 1:1 Langmuir fit
# Method: as §2
row,Binder,Kd
1,B9,290 nM
2,B1,52 nM
3,B10,458 nM
4,B11,218 nM

# Molecular target: T2, soluble human CD123, His-tagged
# Test: SPR (BIAcore), diabody over His-tagged CD123 captured on anti-PentaHis, 1:1 fit
# Method: as §1
row,Binder,Kd
1,B1,2 nM
2,B2,2.3 nM
3,B3,1.2 nM
4,B4,1.1 nM
